T1: His-tagged AtYefM co-expressed with AtYoeB from the pET-Duet vector (Agrobacterium tumefaciens strC58, UniProt Q7CY23 1-84)
T1 sequence (looked up): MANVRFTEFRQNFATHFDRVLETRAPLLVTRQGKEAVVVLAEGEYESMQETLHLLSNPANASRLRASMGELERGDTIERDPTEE

B1: YoeB toxin from Agrobacterium tumefaciens (AtYoeB), expressed alone, after removal of the GST-His affinity tag (natural protein)
chain: MKLVWTLSSWDDYEFWQRTDARMVEKINDLIRNAKRTPFAGLGKPEPLKGDMAGYWSRRITAEHRFVYRVSGSGSEQRLEVIQCRFHYQ
B2: AtYoeB co-expressed with His-AtYefM from the pET-Duet vector (natural protein)
chain: B1 chain
B3: His-AtYefM, YefM antitoxin from Agrobacterium tumefaciens expressed alone (pET15b), His affinity tag kept (natural protein, Agrobacterium tumefaciens strC58, UniProt Q7CY23 1-84, looked up)
chain: T1 sequence (looked up)

How the values were obtained:
[1] = target: the molecule itself; experiment: SEC-MALS
[2] = target: T1, His-tagged AtYefM co-expressed with …; experiment: SEC-MALS

Binder | stoichiometry N [1] | stoichiometry N [2]
B1 | 2 | 
B2 |  | 1
B3 | 2 | 

Reference: publication doi:10.1101/795211 (bioRxiv, 2019)
